Test results reported in patent US7429564B2, “Oral insulin therapy” (Emisphere Technologies, Inc., priority 2002, dated 2008).

How the values were obtained:
[1] = Example 5: plasma insulin pharmacokinetics, healthy male volunteers; details: human, in vivo
Procedure: In Group 1, there were four escalating single doses of 4-CNAB (400, 800, 1400 and 2000 mg) and each subject received either all four of these escalating doses or three escalating single doses and one dose of placebo. […] In Group 3 there were three escalating oral doses of Insulin/4-CNAB (100 Units/300 mg, 100 Units/450 mg and 150 Units/100 mg) and one SC dose of 150 Units of insulin. Each subject received either all four of these treatments or three of these treatments and one placebo treatment. For all groups, there was a washout period of at least 72 hours between treatment periods.
For insulin/4-CNAB treatment Groups 2 and 3, subjects' blood samples (1 drop per sample) were drawn at 15 minutes before dosing, and at 5, 10, 15, 20, 25, 30, 35, 40, and 50 minutes and at 1, 1.25, 1.5, 1.75, 2, 2.5, 3, 4, 6, 8 and 12 hours post-dose (21 samples per treatment for Insulin/4-CNAB dosing groups) for plasma glucose, insulin and C-peptide measurements. For the 4-CNAB alone treatment Group 1, blood samples were collected before dosing (−15 minutes), and at 30 minutes and at 2 hr post-dose for blood glucose measurements. For the insulin alone control group (minimum 3 subjects), blood samples (3 mL in sodium heparin tube) were drawn at 15 minutes before dosing, and at 10, 20, 30, 40, 50 minutes and 1, 1.25, 2, 2.5, 3 and 6 hr post-dose (12 samples per treatment). The blood samples for glucose were assayed in real time using a Glucometer®. These measurements were used for detection of onset of hypoglycemia, so rescue action could be taken where necessary. Plasma glucose, insulin and C-peptide measurements were done according to standard procedures.
On the basis of plasma concentrations of 4-CNAB and insulin, PK analysis was performed using non-compartmental PK methods as implemented in WinNonlin™ Professional version 3.2. The profiles for insulin and C-peptide corrected insulin were evaluated up to 6 hours as food was given 6 hours following insulin treatment. The following parameters were derived for 4-CNAB: Cmax, tmax, AUC(0-t), AUC(0-inf), AUC% Extrap, Kel, t1/2, CL/F, Vd/F, MRT(0-t), MRT(0-inf) and Frel. The following parameters were derived for insulin and C-peptide corrected insulin: Cmax, tmax, AUC(0-2), AUC(0-6), AUC(0-t) and concentrations (C^b) and corresponding time (t^b) immediately prior to intervention for hypoglycemia.
The plasma concentration-time profiles for 4-CNAB were evaluated in those subjects who received 4-CNAB or Insulin/4-CNAB treatments. Insulin, C-peptide and glucose concentration-time profiles following administration of all treatments were evaluated for the 20 subjects in Groups 2 and 3. Pharmacokinetic (“PK”) parameters for 4-CNAB, insulin and C-peptide corrected insulin, and pharmacodynamic (“PD”) parameters for glucose concentration change from baseline, respectively were calculated for subjects whether they required hypoglycemic rescue or not. Concentrations from subjects who required food/drink due to hypoglycemia were excluded from descriptive statistics.

rhesus monkeys = details: rhesus monkey, in vivo, 14 days
Procedure: The present invention comprising compositions of insulin and the delivery agent 4-CNAB was evaluated for safety and toxicity in a nonclinical program that included pharmacological screening, pharmacokinetic profiling, and toxicity assessments in rats and monkeys.

serum glucose = assay: Effective clinical dose of delivery agent in humans (delivery efficiency); format: in vivo, human
Procedure: Next, delivery agents 1-3 were compared for the ability to efficiently transport an active agent across the GI mucosa in a biologically active form by determining the relationship between delivery agent dose, dose of active agent and the glucose response. The effective dose of delivery agent necessary to deliver a therapeutic dose of active agent and produce a therapeutic effect was measured. For delivery agent 3, the active agent was insulin, and the therapeutic effect was determined by the ability of the delivery agent/insulin combination to lower serum glucose by at least 10% within one hour post administration. For delivery agents 1 and 2, the active agent was heparin, and the therapeutic effect was determined by […]

In the case of “oral insulin alone: recombinant human zinc insulin given orally without delivery agent”, the Cmax ([1]; po) is reported as 0.0384 nM, the “Insulin AUC(0-2)” value ([1]; po) is reported as 51.8 ± 15.5 pmol·h/L and the “Insulin tmax, median” value ([1]; po) is reported as 0.43 h.
With “SC insulin: human regular insulin injected subcutaneously (Humulin R or equivalent; Calbiochem insulin in the rat studies)” the Cmax ([1]; sc) was 0.375 nM, the “Insulin AUC(0-2)” value ([1]; sc) was 414.3 ± 181.5 pmol·h/L and the “Insulin AUC(0-6)” value ([1]; sc) was 1228.5 ± 378.1 pmol·h/L. For the same molecule, the “Insulin C^b (immediately prior to recovery from hypoglycemia)” value ([1]; sc) was 168.3 ± 77.5 pmol/L, the “Insulin Cmax” value ([1]; sc) was 54.5 ± 25.6 uU/ml and the “Insulin t^b, median (range)” value ([1]; sc) was 1.00 (0.75-1.25) h. The Insulin tmax ([1]; sc) was 1.75 h and the “Insulin tmax, median (range)” value ([1]; sc) was 1.88 (1.58-4.00) h.
With `O=C(O)CCCNC(=O)c1ccc(Cl)cc1O` [4-CNAB, 4-[(4-chloro, 2-hydroxybenzoyl)amino]butanoic acid] the “Highest proposed human dose (2000 mg) fold lower than NOAEL in monkeys” value (rhesus monkeys) was 12-16 fold, the “Effective clinical dose of delivery agent” value (serum glucose; active agent insulin, lowers serum glucose by at least 10% within one hour) was 200 Mg and the “Fold more efficient in facilitating transit across the GI mucosa vs delivery agent 1” value (serum glucose; effective dose ratio) was “approximately 12 fold”. For the same molecule, the “Fold more efficient in facilitating transport across the GI mucosa vs delivery agent 2” value (serum glucose; effective dose ratio) was 7.5 fold.
